In FireProtDB (doi:10.1016/j.bpj.2010.04.076):

Conditions: Bacillus subtilis (strain 168), pH 7, CD, transition: 2, reversible: yes, whole UniProt chain shown

B1: Adenylate kinase wild type, P16304 (protein)
chain: MNLVLMGLPGAGKGTQGERIVEDYGIPHISTGDMFRAAMKEETPLGLEAKSYIDKGELVPDEVTIGIVKERLGKDDCERGFLLDGFPRTVAQAEALEEILEEYGKPIDYVINIEVDKDVLMERLTGRRICSVCGTTYHLVFNPPKTPGICDKDGGELYQRADDNEETVSKRLEVNMKQTQPLLDFYSEKGYLANVNGQQDIQDVYADVKDLLGGLKK
unfolding free energy (20 °C, GdnHCl, Phosphate buffer 10mM): 3.34 kcal/mol
Tm (Thermal, KH2PO4 10mM): 48.4 °C
